{"source": "paper PMC6073801", "key": {"[1]": {"molecular_target": "ECD_FGFR1-Fc receptor (extracellular region of fibroblast growth factor receptor 1) (UniProt P11362)", "sequence (P11362 22-376)": "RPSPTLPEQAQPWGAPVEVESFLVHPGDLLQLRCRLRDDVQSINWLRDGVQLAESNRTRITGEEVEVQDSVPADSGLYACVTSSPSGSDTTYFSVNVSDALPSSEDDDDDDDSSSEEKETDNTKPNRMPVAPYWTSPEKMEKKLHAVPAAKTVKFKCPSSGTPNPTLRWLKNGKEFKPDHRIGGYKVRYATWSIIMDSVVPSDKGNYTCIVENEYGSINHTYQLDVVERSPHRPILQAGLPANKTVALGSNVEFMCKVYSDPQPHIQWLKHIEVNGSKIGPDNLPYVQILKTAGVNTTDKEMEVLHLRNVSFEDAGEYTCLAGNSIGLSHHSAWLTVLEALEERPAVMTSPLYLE"}, "[2]": {"molecular_target": "ECD_FGFR1-Fc receptor (extracellular region of fibroblast growth factor receptor 1) (UniProt P11362)", "remark": "listed apart in the source"}}}
{"substance": "FGF2 Cys78-α-amanitin/PrK96-MMAE conjugate (from UniProt P09038-2 23-155) (ligand)", "values": [{"measurement": "cytotoxicity (AlamarBlue viability), FGFR1-positive NCI-H446 cells, reduction of viability at the highest tested concentration; no toxicity for FGFR1-negative HCC-15", "setting": "[1]", "value": 95, "unit": "%"}, {"measurement": "internalization of the DyLight550-labelled conjugate, intracellular fluorescence, NCI-H520 (FGFR1 positive) against HCC-15 (FGFR1 negative) cells", "setting": "[2]", "value": 2, "unit": "times"}, {"measurement": "internalization of the DyLight550-labelled conjugate, intracellular fluorescence, U2OS-FGFR1 against control U2OS cells", "setting": "[2]", "value": 5, "unit": "fold"}]}
